Measurements from US20240409645A1 (DUALYX, published 2024).
Values belong to the binder of their own block, whether it stands above or below them.

Molecular target: T1, human IL-2 receptor (IL-2Rα/IL-2Rβ/γc) (human, UniProt P01589 22-272; P14784 27-551; P31785 23-369)
T1 sequence 1: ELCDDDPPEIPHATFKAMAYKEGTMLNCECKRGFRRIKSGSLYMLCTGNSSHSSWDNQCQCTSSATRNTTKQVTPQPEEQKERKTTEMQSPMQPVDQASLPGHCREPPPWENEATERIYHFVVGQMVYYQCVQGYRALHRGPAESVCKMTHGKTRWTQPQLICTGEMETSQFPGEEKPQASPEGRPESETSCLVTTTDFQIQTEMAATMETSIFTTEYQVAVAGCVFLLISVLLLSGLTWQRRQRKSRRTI
T1 sequence 2: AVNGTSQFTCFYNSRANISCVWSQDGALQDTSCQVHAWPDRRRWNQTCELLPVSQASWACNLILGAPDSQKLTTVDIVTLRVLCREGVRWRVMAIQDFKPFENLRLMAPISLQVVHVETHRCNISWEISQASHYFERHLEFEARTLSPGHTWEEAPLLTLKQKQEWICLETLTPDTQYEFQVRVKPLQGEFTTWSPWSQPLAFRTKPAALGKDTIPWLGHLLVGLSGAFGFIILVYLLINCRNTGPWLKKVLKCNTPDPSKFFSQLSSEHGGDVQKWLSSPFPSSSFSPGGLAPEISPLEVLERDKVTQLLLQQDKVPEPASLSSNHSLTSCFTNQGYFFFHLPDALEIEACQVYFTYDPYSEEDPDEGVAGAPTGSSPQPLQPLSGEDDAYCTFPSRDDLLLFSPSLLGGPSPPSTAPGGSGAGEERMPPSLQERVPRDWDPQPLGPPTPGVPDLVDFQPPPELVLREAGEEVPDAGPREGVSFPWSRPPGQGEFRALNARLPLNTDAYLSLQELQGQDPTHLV
T1 sequence 3: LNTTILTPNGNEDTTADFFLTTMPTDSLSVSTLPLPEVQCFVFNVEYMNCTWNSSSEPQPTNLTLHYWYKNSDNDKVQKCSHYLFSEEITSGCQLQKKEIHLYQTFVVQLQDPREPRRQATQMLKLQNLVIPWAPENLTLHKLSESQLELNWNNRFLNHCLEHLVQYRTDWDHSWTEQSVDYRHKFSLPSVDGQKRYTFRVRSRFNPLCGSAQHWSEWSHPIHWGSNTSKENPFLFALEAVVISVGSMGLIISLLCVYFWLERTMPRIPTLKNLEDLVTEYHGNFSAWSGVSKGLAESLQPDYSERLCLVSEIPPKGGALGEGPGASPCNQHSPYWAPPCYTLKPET
Assay: cell-based or functional assay

EC50 (nM) pSTAT5, NK, human PBMCs: 0.191 pM
EC50 (nM) pSTAT5, Treg, human PBMCs: < 0.1 pM
Fold Max signal (% pSTAT5+) Treg/NK: 7 fold
Max signal (% pSTAT5+), NK: 7.96 % pSTAT5+
Max signal (% pSTAT5+), Treg: 58.4 % pSTAT5+
fold EC50 NK/Treg: > 1.91 fold
B1: DC00077 (other)
chain 1: QVQLVESGGGLVQAGGSLRLSCAASGIPFDNYAMGWFRQAPGKEREFVAARDLEGIITRYGDSVKGRFTISRGNAKNTVFLQMNSLKPEDTAVYYCAARDGGVVAGSRSSAQYNYWGQGTQVTVSSDKTHTCPPCPAPEAAGGPSVFLFPPKPKDTLMISRTPEVTCVVVDVSHEDPEVKFNWYVDGVEVHNAKTKPREEQYNSTYRVVSVLTVLHQDWLNGKEYKCKVSNKALGAPIEKTISKAKGQPREPQVYTLPPSRDELTKNQVSLTCLVKGFYPSDIAVEWESNGQPENNYKTTPPVLDSDGSFLLYSKLTVDKSRWQQGNVFSCSVMHEALHNHYTQKSLSLSPGK
chain 2: QVQLVESGGGLVQPGGSLRLSCATSGFTFRNNFMSWVRQAPGKGLEWVSTISYGGESTTYAESVKGRFTISRDNAKNTLYLQMNNLKPEDTAVYYCAKATSYDSIRSGSRGQGTQVTVSSGGGGSGGGGSGGGGSEVQLVESGGGLVQTGGSLRLSCAASGGTFSRDAMAWFRQVPGKEREFVALISWSGATTNYADSVKGRFAISRDNGKNTVYLQMNRLKPADTAIYYCAADRRPMGSRSYFEPTEYDDWGQGTQVTVSSGGGGSGGGGSGGGGSQVQLVESGGGLVQAGGSLTLSCAAPGRTFGTDVVGWFRQAPGKEREFVASISRSGDGIYYDDSVKGRFTISRNNAWNTVNLQMNSLKVEDTAVYYCAAGDGWSTYDYWGQGTQVTVSSGGGGSGGGGSGGGGSDKTHTCPPCPAPEAAGGPSVFLFPPKPKDTLMISRTPEVTCVVVDVSHEDPEVKFNWYVDGVEVHNAKTKPREEQYNSTYRVVSVLTVLHQDWLNGKEYKCKVSNKALGAPIEKTISKAKGQPREPQVYTLPPSRDELTKNQVSLTCLVKGFYPSDIAVEWESNGQPENNYKTTPPVLDSDGSFFLYSRLTVDKSRWQQGNVFSCSVMHEALHNHYTQKSLSLSPGK

EC50 (nM) pSTAT5, NK, human PBMCs: 0.195 nM
EC50 (nM) pSTAT5, Treg, human PBMCs: < 0.1 pM
Fold Max signal (% pSTAT5+) Treg/NK: 5 fold
Max signal (% pSTAT5+), NK: 14.1 % pSTAT5+
Max signal (% pSTAT5+), Treg: 67.8 % pSTAT5+
fold EC50 NK/Treg: > 1950 fold
B2: DC00078 (other)
chain 1: B1 chain 1
chain 2: QVQLVESGGGLVQAGGSLTLSCAAPGRTFGTDVVGWFRQAPGKEREFVASISRSGDGIYYDDSVKGRFTISRNNAWNTVNLQMNSLKVEDTAVYYCAAGDGWSTYDYWGQGTQVTVSSGGGGSGGGGSGGGGSEVQLVESGGGLVQTGGSLRLSCAASGGTFSRDAMAWFRQVPGKEREFVALISWSGATTNYADSVKGRFAISRDNGKNTVYLQMNRLKPADTAIYYCAADRRPMGSRSYFEPTEYDDWGQGTQVTVSSGGGGSGGGGSGGGGSQVQLVESGGGLVQPGGSLRLSCATSGFTFRNNFMSWVRQAPGKGLEWVSTISYGGESTTYAESVKGRFTISRDNAKNTLYLQMNNLKPEDTAVYYCAKATSYDSIRSGSRGQGTQVTVSSDKTHTCPPCPAPEAAGGPSVFLFPPKPKDTLMISRTPEVTCVVVDVSHEDPEVKFNWYVDGVEVHNAKTKPREEQYNSTYRVVSVLTVLHQDWLNGKEYKCKVSNKALGAPIEKTISKAKGQPREPQVYTLPPSRDELTKNQVSLTCLVKGFYPSDIAVEWESNGQPENNYKTTPPVLDSDGSFFLYSRLTVDKSRWQQGNVFSCSVMHEALHNHYTQKSLSLSPGK

EC50 (nM) pSTAT5, NK, human PBMCs: 0.0993 nM
EC50 (nM) pSTAT5, Treg, human PBMCs: < 0.1 pM
Fold Max signal (% pSTAT5+) Treg/NK: 8 fold
Max signal (% pSTAT5+), NK: 7.35 % pSTAT5+
Max signal (% pSTAT5+), Treg: 62.4 % pSTAT5+
fold EC50 NK/Treg: > 994 fold
B3: DC00079 (other)
chain 1: B1 chain 1
chain 2: QVQLVESGGGLVQAGGSLTLSCAAPGRTFGTDVVGWFRQAPGKEREFVASISRSGDGIYYDDSVKGRFTISRNNAWNTVNLQMNSLKVEDTAVYYCAAGDGWSTYDYWGQGTQVTVSSGGGGSGGGGSGGGGSQVQLVESGGGLVQPGGSLRLSCATSGFTFRNNFMSWVRQAPGKGLEWVSTISYGGESTTYAESVKGRFTISRDNAKNTLYLQMNNLKPEDTAVYYCAKATSYDSIRSGSRGQGTQVTVSSGGGGSGGGGSGGGGSEVQLVESGGGLVQTGGSLRLSCAASGGTFSRDAMAWFRQVPGKEREFVALISWSGATTNYADSVKGRFAISRDNGKNTVYLQMNRLKPADTAIYYCAADRRPMGSRSYFEPTEYDDWGQGTQVTVSSGGGGSGGGGSGGGGSDKTHTCPPCPAPEAAGGPSVFLFPPKPKDTLMISRTPEVTCVVVDVSHEDPEVKFNWYVDGVEVHNAKTKPREEQYNSTYRVVSVLTVLHQDWLNGKEYKCKVSNKALGAPIEKTISKAKGQPREPQVYTLPPSRDELTKNQVSLTCLVKGFYPSDIAVEWESNGQPENNYKTTPPVLDSDGSFFLYSRLTVDKSRWQQGNVFSCSVMHEALHNHYTQKSLSLSPGK

EC50 (nM) pSTAT5, NK, human PBMCs: 0.00648 nM
EC50 (nM) pSTAT5, Treg, human PBMCs: < 0.1 pM
Fold Max signal (% pSTAT5+) Treg/NK: 4 fold
Max signal (% pSTAT5+), NK: 4.42 % pSTAT5+
Max signal (% pSTAT5+), Treg: 17.8 % pSTAT5+
fold EC50 NK/Treg: > 64.8 fold
B4: DC00080 (other)
chain 1: QVQLVESGGGLVQAGGSLRLSCAASGGTFRTRNMGWFRRAPGKEREFVAAVSWNVDNKLYADSVKGRFTISRDNGRNMVYLQMNSLKPEDTAVYYCAADNIPLSSDMRPTATEYDYWGQGTQVTVSSDKTHTCPPCPAPEAAGGPSVFLFPPKPKDTLMISRTPEVTCVVVDVSHEDPEVKFNWYVDGVEVHNAKTKPREEQYNSTYRVVSVLTVLHQDWLNGKEYKCKVSNKALGAPIEKTISKAKGQPREPQVYTLPPSRDELTKNQVSLTCLVKGFYPSDIAVEWESNGQPENNYKTTPPVLDSDGSFLLYSKLTVDKSRWQQGNVFSCSVMHEALHNHYTQKSLSLSPGK
chain 2: EVQLVESGGGLVQTGGSLRLSCAASGGTFSRDAMAWFRQVPGKEREFVALISWSGATTNYADSVKGRFAISRDNGKNTVYLQMNRLKPADTAIYYCAADRRPMGSRSYFEPTEYDDWGQGTQVTVSSGGGGSGGGGSGGGGSQVQLVESGGGLVQPGGSLRLSCATSGFTFRNNFMSWVRQAPGKGLEWVSTISYGGESTTYAESVKGRFTISRDNAKNTLYLQMNNLKPEDTAVYYCAKATSYDSIRSGSRGQGTQVTVSSGGGGSGGGGSGGGGSQVQLVESGGGLVQAGGSLTLSCAAPGRTFGTDVVGWFRQAPGKEREFVASISRSGDGIYYDDSVKGRFTISRNNAWNTVNLQMNSLKVEDTAVYYCAAGDGWSTYDYWGQGTQVTVSSGGGGSGGGGSGGGGSDKTHTCPPCPAPEAAGGPSVFLFPPKPKDTLMISRTPEVTCVVVDVSHEDPEVKFNWYVDGVEVHNAKTKPREEQYNSTYRVVSVLTVLHQDWLNGKEYKCKVSNKALGAPIEKTISKAKGQPREPQVYTLPPSRDELTKNQVSLTCLVKGFYPSDIAVEWESNGQPENNYKTTPPVLDSDGSFFLYSRLTVDKSRWQQGNVFSCSVMHEALHNHYTQKSLSLSPGK

EC50 (nM) pSTAT5, NK, human PBMCs: 0.194 nM
EC50 (nM) pSTAT5, Treg, human PBMCs: < 0.1 pM
Fold Max signal (% pSTAT5+) Treg/NK: 5 fold
Max signal (% pSTAT5+), NK: 13.5 % pSTAT5+
Max signal (% pSTAT5+), Treg: 60.9 % pSTAT5+
fold EC50 NK/Treg: > 1940 fold
B5: DC00081 (other)
chain 1: B4 chain 1
chain 2: QVQLVESGGGLVQPGGSLRLSCATSGFTFRNNFMSWVRQAPGKGLEWVSTISYGGESTTYAESVKGRFTISRDNAKNTLYLQMNNLKPEDTAVYYCAKATSYDSIRSGSRGQGTQVTVSSGGGGSGGGGSGGGGSQVQLVESGGGLVQAGGSLTLSCAAPGRTFGTDVVGWFRQAPGKEREFVASISRSGDGIYYDDSVKGRFTISRNNAWNTVNLQMNSLKVEDTAVYYCAAGDGWSTYDYWGQGTQVTVSSGGGGSGGGGSGGGGSEVQLVESGGGLVQTGGSLRLSCAASGGTFSRDAMAWFRQVPGKEREFVALISWSGATTNYADSVKGRFAISRDNGKNTVYLQMNRLKPADTAIYYCAADRRPMGSRSYFEPTEYDDWGQGTQVTVSSGGGGSGGGGSGGGGSDKTHTCPPCPAPEAAGGPSVFLFPPKPKDTLMISRTPEVTCVVVDVSHEDPEVKFNWYVDGVEVHNAKTKPREEQYNSTYRVVSVLTVLHQDWLNGKEYKCKVSNKALGAPIEKTISKAKGQPREPQVYTLPPSRDELTKNQVSLTCLVKGFYPSDIAVEWESNGQPENNYKTTPPVLDSDGSFFLYSRLTVDKSRWQQGNVFSCSVMHEALHNHYTQKSLSLSPGK
